Measured values as given in paper PMC7994445, “The actomyosin interface contains an evolutionary conserved core and an ancillary interface involved in specificity” (Nature Communications, 2021).

Legend:
[1] = biological target: the molecule itself; assay: cryo-EM structure; PfMyoA motor domain T417D incubated in solution with JAS-stabilized PfAct1 filaments, vitrified within 15 min; nucleotide-free (Rigor) state; helical reconstruction at 3.8 Å
[2] = biological target: T1, PfMyoA motor domain (amino acids 1-K768) with a T417D mutation (Plasmodium falciparum, UniProt Q8IDR3 1-768, T417D); assay: as above; details: both partners purified
T1 construct: Plasmodium falciparum myosin A (PfMyoA) heavy chain, motor domain, amino acids 1-K768, with the phosphomimetic mutation T417D (TEDS site, HCM loop); Residue K768 is followed by a Gly-Ser linker and the C-terminal FLAG tag; Nucleotide-free (Rigor) in the structure; also called PfMD; PfMyoA motor-domain construct with a T417D mutation
T1 sequence: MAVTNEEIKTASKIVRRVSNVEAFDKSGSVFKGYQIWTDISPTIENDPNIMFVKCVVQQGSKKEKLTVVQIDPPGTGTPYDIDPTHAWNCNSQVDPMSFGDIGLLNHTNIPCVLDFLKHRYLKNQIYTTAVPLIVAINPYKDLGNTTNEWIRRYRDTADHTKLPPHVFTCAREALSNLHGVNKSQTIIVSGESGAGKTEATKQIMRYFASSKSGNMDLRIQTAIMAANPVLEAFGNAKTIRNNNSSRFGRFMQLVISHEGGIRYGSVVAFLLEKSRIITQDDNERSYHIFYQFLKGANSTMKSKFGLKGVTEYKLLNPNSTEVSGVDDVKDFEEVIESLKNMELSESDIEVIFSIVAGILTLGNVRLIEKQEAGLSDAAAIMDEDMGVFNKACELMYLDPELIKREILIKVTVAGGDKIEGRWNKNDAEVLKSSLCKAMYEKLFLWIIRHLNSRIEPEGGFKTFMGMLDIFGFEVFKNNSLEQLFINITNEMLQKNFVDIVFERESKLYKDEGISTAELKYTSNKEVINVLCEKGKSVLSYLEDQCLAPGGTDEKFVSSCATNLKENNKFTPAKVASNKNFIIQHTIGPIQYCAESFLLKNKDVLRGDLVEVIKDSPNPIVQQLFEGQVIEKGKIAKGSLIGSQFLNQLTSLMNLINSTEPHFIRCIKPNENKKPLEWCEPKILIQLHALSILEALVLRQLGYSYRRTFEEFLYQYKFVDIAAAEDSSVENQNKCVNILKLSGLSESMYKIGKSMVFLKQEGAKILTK

B1: PfActin-1 filaments (natural protein)
chain: not shown
notes: Plasmodium falciparum actin-1; ends at the final native Phe after chymotrypsin cleavage; Filamentous; unstabilised filaments were used in one motility condition; also called PfAct1; P. falciparum actin 1; not shown: His6, C-terminal, cleaved
B1: binds [1]; binds [2].
